Data as given in patent US20240018240A1 (Hoffmann-La Roche, published 2024).
Residue numbers refer to the chain shown, from its start. One block for each binder: values may come before it.

Columns and labels:
[1] = target: T1, human PLAP (ALPP) expressed on CHO-K1 cells (human, UniProt P05187 23-506); test: cell-based or functional assay
[2] = target: human ALPG (ALPPL2) expressed on CHO-K1 cells (human, UniProt P10696 20-503); test: cell-based or functional assay
[3] = target: T1, human PLAP (ALPP) expressed on CHO-K1 …; test: cell-based or functional assay; remark: listed apart in the source
[4] = target: T2, cynomolgus PLAP (ALPP) expressed on CHO-K1 cells (cynomolgus, UniProt P05187 23-452 (human entry)); test: cell-based or functional assay
T2 chain: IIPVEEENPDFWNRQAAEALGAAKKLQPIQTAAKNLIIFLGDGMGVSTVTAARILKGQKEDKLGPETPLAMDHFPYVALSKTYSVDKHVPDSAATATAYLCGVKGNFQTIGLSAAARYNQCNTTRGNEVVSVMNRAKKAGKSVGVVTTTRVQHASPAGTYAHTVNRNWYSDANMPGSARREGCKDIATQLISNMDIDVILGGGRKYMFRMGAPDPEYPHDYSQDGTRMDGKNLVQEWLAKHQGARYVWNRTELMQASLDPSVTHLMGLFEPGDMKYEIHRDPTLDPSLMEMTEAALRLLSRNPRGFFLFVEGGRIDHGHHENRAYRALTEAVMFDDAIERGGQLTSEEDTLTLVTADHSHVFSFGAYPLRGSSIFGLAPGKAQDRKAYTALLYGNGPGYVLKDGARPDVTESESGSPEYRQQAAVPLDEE

[5] = target: T3, Human CD3ε stalk-Fc(knob)-Avi/CD3δ stalk-Fc(hole) (human); test: SPR (Biacore T200, 25°C); TCB captured by anti-PG antibody on CM5 chip, 300 nM human CD3ε/δ injected; relative active concentration
T3 construct: Heterodimer of CD3 delta and CD3 epsilon ectodomains fused to a human Fc domain with knob-into-hole modifications and C-terminal Avi-tag; also called human CD3ε/δ; CD3ε/δ
Description: SPR experiments were performed on a Biacore T200 instrument (GE Healthcare) at 25° C. with HBS-P+(10 mM HEPES, 150 mM NaCl pH 7.4, 0.05% Surfactant P20) as running and dilution buffer. Anti-PG antibody (see Example 3) was immobilized by amine coupling (using amine coupling kit, Cytiva #BR100050) at a density of >6000 RU on a CM5 Chip (Sensor Chip CM5, Cytiva #29104988). The 10 nM solutions of TCB molecule samples in HBS-P+ were captured for 30 sec at a flow rate 10 μl/min. Then a 300 nM solution of human CD3ε/δ (see Example 3, SEQ ID NOs 24 and 25) was injected for 150 sec association time and 120 sec dissociation time at a flow rate of 10 μl/min. The regeneration of the surface followed by a 35 sec regeneration step with a 20 mM NaOH solution. The data were analyzed with the Biacore T200 Evaluation and Excel software. For the calculation of relative active concentration (RAC) the binding report point (BRP) was used (the BRP is a standard readout point in SPR, maximum response (unit/value) of interaction between antigen and antibody).

[6] = target: T4, Human PLAP (soluble, as injected in SPR) (human, UniProt P05187 23-506); test: SPR RAC assay (Biacore T200, 25°C); TCB captured by anti-PG antibody on CM3 chip, 100 nM human PLAP injected
T4 construct: also called PLAP target
Description: (§1) SPR experiments were performed on a Biacore T200 instrument (GE Healthcare). For the immobilization. HBS-N pH 7.4 was used as a running buffer (Cytiva #BR100670). Anti-PG antibody (see Example 3) was immobilized by amine coupling (using amine coupling kit, Cytiva #BR100050) at a density of >6000 RU on a CM3 Chip (Cytiva #29104990). The anti-PG antibody stock solution was diluted to a concentration of 25 μg/mL in a 10 mM sodium acetate buffer of pH 5.0 (Cytiva #BR100351). After the immobilization the analysis was performed at 25° C., and using PBS-P+ (Cytiva #28995084) as a running and a dilution buffer. The 5 nM solutions of TCB molecule samples in PBS-P+ were captured for 30 sec at a flow rate 5 μl/min. Then a 100 nM solution of human PLAP was injected for 90 sec association time and 30 sec dissociation time at a flow rate of 8 μl/min. Thereafter, a 200 nM solution of human CD3ε/δ (see Example 3, SEQ ID NOs 24 and 25) was injected for 90 sec association time and 30 sec dissociation time at a flow rate of 8 μl/min. The regeneration of the surface followed by two 60 sec regeneration steps with a 10 mM NaOH solution. The data were analyzed with the Biacore T200 Evaluation and Excel software. For the calculation of relative active concentration (RAC) the binding report point (BRP) was used. To calculate the RAC, the target and antibody concentrations were referenced to the unstressed sample (−80° C.) as 100% comparison. For the normalization of the protein concentration, reference was made to anti-PG antibody capturing (RAC values).

[7] = target: T4, Human PLAP (soluble, as injected in SPR); test: SPR single cycle kinetics (Biacore T200, 25°C); TCB captured by anti-PG antibody on CM3 chip, human PLAP as analyte
Description: (§2) The binding kinetics of the PLAP TCB molecules generated in Example 17 were characterized by the single cycle kinetic (SSK) assay. For this assay, again the SPR Biacore T200 was used. The immobilization was performed at 25° C. with HBS-N pH 7.4 as a running buffer (Cytiva #BR100670). The anti-PG antibody (see Example 3) was immobilized by amine coupling (using amine coupling kit, Cytiva #BR100050) at a density of >5000 RU on a CM3 Chip (Cytiva #29104990). The anti-PG antibody stock solution was diluted to a concentration of 25 μg/mL in a 10 mM sodium acetate buffer of pH 5.0 (Cytiva #BR100351). After the immobilization the analysis was performed at 25° C., and PBS-P+(Cytiva #28995084) was used as a running and a dilution buffer. The 3 nM solutions of TCB molecule samples in PBS-P+ were captured with anti-PG antibody on a CM3 sensor chip.
(§3) The derived kinetic rate constants and corresponding affinity values (equilibrium dissociation constant KD) are summarized in Table 26 for the CD3 binder and in Table 27 for the PLAP binder. The data were analyzed with the Biacore T200 Evaluation and Excel software.

[8] = target: T3, Human CD3ε stalk-Fc(knob)-Avi/CD3δ …; test: SPR single cycle kinetics (Biacore T200, 25°C); TCB captured by anti-PG antibody on CM3 chip, human CD3ε/δ as analyte
Description: as §2, §3

[9] = target: T3, Human CD3ε stalk-Fc(knob)-Avi/CD3δ …; test: SPR RAC assay (Biacore T200, 25°C); TCB captured by anti-PG antibody on CM3 chip, 200 nM human CD3ε/δ injected after 100 nM human PLAP
Description: as §1

T4 sequence (P05187 23-506 limits assumed): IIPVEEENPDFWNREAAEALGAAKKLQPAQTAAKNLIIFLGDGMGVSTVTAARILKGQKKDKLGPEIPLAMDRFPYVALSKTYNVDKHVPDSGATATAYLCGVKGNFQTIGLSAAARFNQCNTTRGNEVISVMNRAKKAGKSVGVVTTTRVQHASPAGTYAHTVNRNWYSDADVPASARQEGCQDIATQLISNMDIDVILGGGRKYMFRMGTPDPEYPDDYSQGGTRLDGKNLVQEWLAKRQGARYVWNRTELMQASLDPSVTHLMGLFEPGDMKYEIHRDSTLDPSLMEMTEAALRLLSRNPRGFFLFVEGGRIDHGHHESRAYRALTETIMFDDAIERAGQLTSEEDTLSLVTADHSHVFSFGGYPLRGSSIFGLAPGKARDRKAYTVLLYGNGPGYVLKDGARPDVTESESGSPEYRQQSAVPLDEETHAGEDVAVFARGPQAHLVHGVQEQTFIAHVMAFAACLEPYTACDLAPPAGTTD
T1 sequence (P05187 23-506): as the sequence (P05187 23-506 limits assumed) above

B1: PLAP H1 CD3 P035.093 TCB (bispecific antibody, human IgG1, kappa, L234A L235A)
heavy 1: not shown
heavy 2: QVQLQESGPGLVKPSETLSLTCTVSGFSLTSYGVSWIRQPPGKGLEWIGVIWEDGSTNYHSALISRVTISVDTSKNQFSLKLSSVTAADTAVYYCARPHYGSSYVGAMEYWGAGTTVTVSSASTKGPSVFPLAPSSKSTSGGTAALGCLVEDYFPEPVTVSWNSGALTSGVHTFPAVLQSSGLYSLSSVVTVPSSSLGTQTYICNVNHKPSNTKVDEKVEPKSCDKTHTCPPCPAPEAAGGPSVFLFPPKPKDTLMISRTPEVTCVVVDVSHEDPEVKFNWYVDGVEVHNAKTKPREEQYNSTYRVVSVLTVLHQDWLNGKEYKCKVSNKALGAPIEKTISKAKGQPREPQVCTLPPSRDELTKNQVSLSCAVKGFYPSDIAVEWESNGQPENNYKTTPPVLDSDGSFFLVSKLTVDKSRWQQGNVFSCSVMHEALHNHYTQKSLSLSP
light 1: DIQMTQSPSSLSASVGDRVTITCRASENIYSYVAWYQQKPGKAPKLLIYNAKSLASGVPSRFSGSGSGTDFTLTISSLQPEDFATYYCQHHYVSPWTFGGGTKLEIKRTVAAPSVFIFPPSDRKLKSGTASVVCLLNNFYPREAKVQWKVDNALQSGNSQESVTEQDSKDSTYSLSSTLTLSKADYEKHKVYACEVTHQGLSSPVTKSFNRGEC
light 2: EVQLLESGGGLVQPGGSLRLSCAASGFTFSSYAMNWVRQAPGKGLEWVSRIRSKYNNYATYYADSVKGRFTISRDDSKNTLYLQMNSLRAEDTAVYYCVRASNFPASYVSYFAYWGQGTLVTVSSASVAAPSVFIFPPSDEQLKSGTASVVCLLNNFYPREAKVQWKVDNALQSGNSQESVTEQDSKDSTYSLSSTLTLSKADYEKHKVYACEVTHQGLSSPVTKSFNRGEC
notes: also called PLAP H1 TCB; PLAP (H1) TCB
- EC50 (pM), Jurkat NFAT reporter assay (luminescence, 6 h) [1]: 37 pM
- EC50 (pM), Jurkat NFAT reporter assay (luminescence, 6 h) [2]: 40 pM
- EC50 (pM), Jurkat NFAT reporter assay to show cynomolgus cross-reactivity [3]: 98 pM
- EC50 (pM), Jurkat NFAT reporter assay to show cynomolgus cross-reactivity [4]: 45 pM
- RAC % of CD3 binding, stress A [5]: 100%
- RAC % of CD3 binding, stress B [5]: 98%
- RAC % of CD3 binding, unstressed [5]: 100%

B2: PLAP H3 CD3orig TCB (bispecific antibody, human IgG1, kappa, L234A L235A)
heavy 1: not shown
heavy 2: B1 heavy 2 with H60N, S61P, A62S, I64K
light 1: B1 light 1
light 2: B1 light 2 with S31T, A101H, S102G, P105G, A106N, Y111W
- RAC [%] PLAP binding, stress A [6]: 99%
- RAC [%] PLAP binding, stress B [6]: 100%
- RAC [%] PLAP binding, unstressed [6]: 100%
- Kd [7]: 0.009 nM
- koff [7]: 3.87e-05 s⁻¹
- kon [7]: 4.32e+06 M⁻¹ s⁻¹
- Kd [8]: 6.3 nM
- koff [8]: 0.00167 s⁻¹
- kon [8]: 267000 M⁻¹ s⁻¹
- RAC [%] CD3 binding, stress A [9]: 97%
- RAC [%] CD3 binding, stress B [9]: 82%
- RAC [%] CD3 binding, unstressed [9]: 100%

B4: PLAP H2 CD3 P035.093 TCB (bispecific antibody, human IgG1, kappa, L234A L235A)
heavy 1: not shown
heavy 2: B1 heavy 2 with P41A, I69M
light 1: B1 light 1
light 2: B1 light 2
notes: also called PLAP H2 TCB; PLAP (H2) TCB
- EC50 (pM), Jurkat NFAT reporter assay (luminescence, 6 h) [1]: 21 pM
- EC50 (pM), Jurkat NFAT reporter assay (luminescence, 6 h) [2]: 22 pM
- RAC % of CD3 binding, stress A [5]: 100%
- RAC % of CD3 binding, stress B [5]: 96%
- RAC % of CD3 binding, unstressed [5]: 100%

More lines, now with the values ahead:

- RAC [%] PLAP binding, stress A [6]: 99%
- RAC [%] PLAP binding, stress B [6]: 103%
- RAC [%] PLAP binding, unstressed [6]: 100%
- Kd [7]: 0.0496 nM
- koff [7]: 8.91e-05 s⁻¹
- kon [7]: 1.8e+06 M⁻¹ s⁻¹
- Kd [8]: 5.7 nM
- koff [8]: 0.00167 s⁻¹
- kon [8]: 292000 M⁻¹ s⁻¹
- RAC [%] CD3 binding, stress A [9]: 97%
- RAC [%] CD3 binding, stress B [9]: 78%
- RAC [%] CD3 binding, unstressed [9]: 100%
B3: PLAP H4 CD3orig TCB (bispecific antibody, human IgG1, kappa, L234A L235A)
heavy 1: not shown
heavy 2: B1 heavy 2 with F27G, L29I
light 1: B1 light 1
light 2: B1 light 2 with S31T, A101H, S102G, P105G, A106N, Y111W

- RAC [%] PLAP binding, stress A [6]: 100%
- RAC [%] PLAP binding, stress B [6]: 101%
- RAC [%] PLAP binding, unstressed [6]: 100%
- Kd [7]: 0.0097 nM
- koff [7]: 3.99e-05 s⁻¹
- kon [7]: 4.12e+06 M⁻¹ s⁻¹
- Kd [8]: 2.8 nM
- koff [8]: 0.0136 s⁻¹
- kon [8]: 4.79e+06 M⁻¹ s⁻¹
- RAC [%] CD3 binding, stress A [9]: 98%
- RAC [%] CD3 binding, stress B [9]: 95%
- RAC [%] CD3 binding, unstressed [9]: 100%
B5: PLAP H3 CD3opt TCB (bispecific antibody, human IgG1, kappa, L234A L235A)
heavy 1: not shown
heavy 2: B1 heavy 2 with H60N, S61P, A62S, I64K
light 1: B1 light 1
light 2: B1 light 2 with T28Q, A101H, S102T, N103T, A106S, F112Y, A113G
notes: 2+1 IgG CrossFab, inverted

- EC50 (pM), Jurkat NFAT reporter assay (luminescence, 6 h) [1]: 36 pM
- EC50 (pM), Jurkat NFAT reporter assay (luminescence, 6 h) [2]: 34 pM
- RAC % of CD3 binding, stress A [5]: 100%
- RAC % of CD3 binding, stress B [5]: 98%
- RAC % of CD3 binding, unstressed [5]: 100%
B6: PLAP H4 CD3 P035.093 TCB (bispecific antibody, human IgG1, kappa, L234A L235A)
heavy 1: not shown
heavy 2: B1 heavy 2 with F27G, L29I
light 1: B1 light 1
light 2: B1 light 2
notes: also called PLAP H4 TCB

- RAC [%] PLAP binding, stress A [6]: 100%
- RAC [%] PLAP binding, stress B [6]: 102%
- RAC [%] PLAP binding, unstressed [6]: 100%
- Kd [7]: 0.0181 nM
- koff [7]: 4.45e-05 s⁻¹
- kon [7]: 2.46e+06 M⁻¹ s⁻¹
- Kd [8]: 6.3 nM
- koff [8]: 0.0017 s⁻¹
- kon [8]: 269000 M⁻¹ s⁻¹
- RAC [%] CD3 binding, stress A [9]: 96%
- RAC [%] CD3 binding, stress B [9]: 81%
- RAC [%] CD3 binding, unstressed [9]: 100%
B7: PLAP H2 CD3orig TCB (bispecific antibody, human IgG1, kappa, L234A L235A)
heavy 1: not shown
heavy 2: B1 heavy 2 with P41A, I69M
light 1: B1 light 1
light 2: B1 light 2 with S31T, A101H, S102G, P105G, A106N, Y111W
